# Results published in patent US7413866B2, “Compositions and methods for detecting and treating diseases and conditions related to chemokine receptors” (ChemoCentryx, Inc., priority 2001, dated 2008).
# T1: CCR1 expressed on NSO transfectants (UniProt P32246 1-355)
# T1 chain: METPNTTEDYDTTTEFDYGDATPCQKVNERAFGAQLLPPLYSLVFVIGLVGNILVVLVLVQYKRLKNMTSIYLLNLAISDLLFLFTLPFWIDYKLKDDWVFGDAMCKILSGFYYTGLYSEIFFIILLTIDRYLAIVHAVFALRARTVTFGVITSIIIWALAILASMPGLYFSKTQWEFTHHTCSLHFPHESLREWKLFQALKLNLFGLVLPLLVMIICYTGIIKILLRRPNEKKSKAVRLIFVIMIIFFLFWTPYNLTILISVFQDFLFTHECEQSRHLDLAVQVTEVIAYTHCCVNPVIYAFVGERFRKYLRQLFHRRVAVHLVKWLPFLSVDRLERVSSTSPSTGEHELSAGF
# T2: CCR1 on monocytes (UniProt P32246 1-355)
# T2 chain: T1 chain
# T3: CCR1 on THP-1 cells (acute monocytic leukemia) (UniProt P32246 1-355)
# T3 chain: T1 chain
# T4: CCR1 expressed on HEK293 transfectants (UniProt P32246 1-355)
# T4 chain: T1 chain
# T5: CCR1 (Homo sapiens, UniProt P32246)
# T5 sequence (P32246 1-355): T1 chain
# T6: CCR1 expressed on HEK293 transfectants (human, UniProt P32246 1-355)
# T6 construct: CCR1 cDNA transfected into HEK293 cells; also called HEK293-CCR1
# T6 sequence: T1 chain
# T7: CCR1 expressed on NSO transfectants (human, UniProt P32246 1-355)
# T7 construct: CCR1 transfectant of NSO cells; also called NSO-CCR1
# T7 sequence: T1 chain
# B1: Leukotactin (ligand)
# chain: SFHFAADCCTSYISQSIPCSLMKSYFETSSECSKPGVIFLTKKGRQVCAKPSGPGVQDCMKKLKPYSI
# B2: CKβ8 (1-99) (ligand)
# chain: RVTKDAETEFMMSKLPLENPVLLDRFHATSADCCISYTPRSIPCSLLESYFETNSECSKPGVIFLTKKGRRFCANPSDKQVQVCMRMLKLDTRIKTRKN
# notes: The numbers 1-99 count on the mature chemokine, not on the precursor; also called CCL23 (99-amino acid form)
# B3: mMIP-1γ: CCR1 ligand (protein)
# chain: QITHATETKEVQSSLKAQQGLEIEMFHMGFQDSSDCCLSYNSRIQCSRFIGYFPTSGGCTRPGIIFISKRGFQVCANPSDRRVQRCIERLEQNSQPRTYKQ
# B4: HHV8 vMIP-II: viral recombinant chemokine (protein)
# chain: LGASWHRPDKCCLGYQKRPLPQVLLSSWYPTSQLCSKPGVIFLTKRGRQVCADKSKDWVKKLMQQLPVTAR
# B5: MIP-1α (ligand)
# chain: ADTPTACCFSYTSRQIPQNFIADYFETSSQCSKPGVIFLTKRSRQVCADPSEEWVQKYVSDLELSA
# modifications: also: 125I label where used as radioligand
# B6: MIP-1α: CC chemokine, CCR1 ligand (protein)
# chain: B5 chain
# B7: mI-TAC: murine recombinant chemokine I-TAC (protein)
# chain: FLMFKQGRCLCIGPGMKAVKMAEIEKASVIYPSNGCDKVEVIVTMKAHKRQRCLDPRSKQARLIMQAIEKKNFLRRQNM
# B8: human I-TAC (ligand, UniProt O14625 22-94, looked up)
# chain: FPMFKRGRCLCIGPGVKAVKVADIEKASIMYPSNNCDKIEVIITLKENKGQRCLNPKSKQARLIIKKVERKNF
# modifications: 125I label where used as the radioligand
# What was measured:
# [1] = target: T8, CXCR4 on MCF-7 cells (Homo sapiens); test: 125I SDF-1α competition binding on MCF-7 cells; conditions: cold competitor array
# T8 construct: host or cells: MCF-7 (whole cells)
# T8 sequence (P25106 whole entry): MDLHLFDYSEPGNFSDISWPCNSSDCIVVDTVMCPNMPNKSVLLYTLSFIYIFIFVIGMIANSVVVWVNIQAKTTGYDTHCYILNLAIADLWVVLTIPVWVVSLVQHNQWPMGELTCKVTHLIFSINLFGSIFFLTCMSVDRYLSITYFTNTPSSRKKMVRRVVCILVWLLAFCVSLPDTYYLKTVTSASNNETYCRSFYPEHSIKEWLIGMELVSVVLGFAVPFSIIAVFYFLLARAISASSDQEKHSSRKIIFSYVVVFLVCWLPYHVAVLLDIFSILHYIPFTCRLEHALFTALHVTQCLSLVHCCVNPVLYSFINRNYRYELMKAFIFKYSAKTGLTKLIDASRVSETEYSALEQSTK
# Excerpt: (§1) Binding Analysis. We employed our technique, DisplaceMax, to examine the global profile of chemokine ligand interaction with CXCR4 on MCF-7 and CEM-NKr cells. This technology employs expanded, efficiency-maximized radioligand binding using filtration protocols as described previously (Kledal T N, et al. Science 277:1656-1659 (1997); Dairaghi, et al. J Biol Chem 274:21569-74 (1999); Gosling, J. et al. J Immunol 164:2851-6 (2000)). […] Where indicated, anti-CXCR4 antibodies or isotype controls were included in the binding reactions. In these experiments cells were pre-incubated with the indicated concentration of antibody for 30 min at 4° C. prior to the addition of radiolabeled chemokine. Small molecules were included in some assays, where indicated. In these assays the compound was added to the plate to the indicated concentration followed by the addition of radiolabeled chemokine. All assays were then incubated for 3 hrs at 4° C. with gentle agitation. Following incubation in all binding assays, reactions were aspirated onto PEI-treated GF/B glass filters (Packard) using a cell harvester (Packard) and washed twice (25 mM HEPES, 500 mM NaCl, 1 mM CaCl2, 5 mM MgCl2, adjusted to pH 7.1). Scintillant (MicroScint 10, Packard) was added to the wells, and the filters were counted in a Packard Topcount scintillation counter. Data were analyzed and plotted using Prism (GraphPad Prism version 3.0a for Macintosh, GraphPad Software).
# [2] = target: T9, CXCR4 on MCF-7 cells (Homo sapiens, UniProt P25106); test: 125I SDF-1α competition binding on MCF-7 cells
# T9 construct: host or cells: MCF-7 (whole cells)
# T9 sequence (P25106 whole entry): as above
# Excerpt: as §1
# [3] = target: T10, CXCR4 on E13 fetal liver cells (Mus musculus); test: Radiolabeled human-SDF-1 binding competition on E13 fetal liver cells; conditions: wildtype mouse embryo E13 fetal liver cells
# T10 construct: from tissue; host or cells: fetal liver cells of wildtype mouse embryos, E13
# T10 sequence (P56485 whole entry): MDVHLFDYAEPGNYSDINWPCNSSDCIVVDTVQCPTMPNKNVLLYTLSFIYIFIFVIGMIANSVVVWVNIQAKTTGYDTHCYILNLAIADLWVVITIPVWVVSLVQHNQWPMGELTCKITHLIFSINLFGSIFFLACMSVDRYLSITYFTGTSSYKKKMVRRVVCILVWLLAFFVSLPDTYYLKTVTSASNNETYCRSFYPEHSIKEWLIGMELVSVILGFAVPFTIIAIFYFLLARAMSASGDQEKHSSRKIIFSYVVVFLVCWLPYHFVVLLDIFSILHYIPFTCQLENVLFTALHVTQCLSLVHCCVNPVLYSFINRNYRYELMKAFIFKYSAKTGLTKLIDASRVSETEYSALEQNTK
# [4] = tested on: MDA MB-231 cells; test: Matrigel invasion assay; assay type: cell-based, human; conditions: breast tumor cells, 22 hrs
# Procedure: Invasion Assay. Invasion assays were performed as per the manufacturer's instructions. Briefly, chemokines were diluted in HBSS (Life Technologies, Gaithersburg, Md.) supplemented with 0.1% bovine albumin (Sigma Chemical Company, St. Louis, Mo.) and added to the lower wells of BD BioCoat Matrigel Invasion chambers (BD Biosciences, Bedford, Mass.). MDA MB-231 cells were added to the matrigel coated inserts and the plates were incubated at 37° C. in a humidified incubator at a 5% CO2/air mixture for 22 hrs. Following this incubation, the inserts were transferred to a new plate and the media in the inserts was removed. Using a cotton swab the matrigel plug was removed from each well. The filters were then stained using Protocol Hema staining system (Biochemical Sciences, Inc., Swedesboro, N.J.). Invading cells were examined under a Nikon Elipse E800 (Nikon, Inc., Melville, N.Y.) microscope with a 40× lens. Cells were counted in 5 fields of view of each filter. Data represent the mean of 5 fields of view from each filter tested in triplicate.
# [5] = target: T11, CXCR4 on E17 fetal liver cells (Mus musculus, UniProt P70658); test: SDF-1 mediated calcium mobilization in E17 fetal liver cells; assay type: cell-based; conditions: wildtype mouse embryo E17 fetal liver cells
# T11 construct: the E17 fetal liver cells also express CXCR4; from tissue; host or cells: fetal liver cells of wildtype mouse embryos, E17
# T11 sequence (P70658 whole entry): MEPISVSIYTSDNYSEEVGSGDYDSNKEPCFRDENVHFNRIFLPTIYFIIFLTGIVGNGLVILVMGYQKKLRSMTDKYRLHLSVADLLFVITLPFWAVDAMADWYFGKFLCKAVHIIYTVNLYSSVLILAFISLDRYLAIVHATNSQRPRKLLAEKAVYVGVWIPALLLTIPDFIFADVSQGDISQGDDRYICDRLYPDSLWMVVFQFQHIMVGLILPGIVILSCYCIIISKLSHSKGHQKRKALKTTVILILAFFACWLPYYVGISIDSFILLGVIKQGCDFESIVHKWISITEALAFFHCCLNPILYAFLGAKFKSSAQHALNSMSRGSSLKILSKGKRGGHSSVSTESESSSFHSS
# [6] = tested on: tumor cells expressing the tumor correlated form of CXCR4; test: Serum starvation apoptosis of tumor cells; assay type: cell-based; conditions: serum starved overnight, compared to untreated controls
# [7] = target: T9, CXCR4 on MCF-7 cells; test: 125I I-TAC competition binding on MCF-7 cells
# Excerpt: as §1, with “Following incubation in all binding assays, reactions were aspirated onto PEI-treated GF/B glass filters (Packard) using a cell harvester (Packard) and washed twice (25 mM HEPES, 500 mM NaCl, 1 mM CaCl2, 5 mM MgCl2, adjusted to pH 7.1).” left out
# [8] = target: CCR1 expressed on NSO transfectants (UniProt P32246); test: 125I MIP-1α competition binding on cells; NSO-CCR1 cells; conditions: ligand
# [9] = target: CCR1 on THP-1 cells (acute monocytic leukemia) (UniProt P32246); test: 125I MIP-1α competition binding on cells; THP-1 cells; conditions: ligand
# [10] = target: CCR1 expressed on HEK293 transfectants (UniProt P32246); test: 125I MIP-1α competition binding on cells; HEK293-CCR1 cells; conditions: ligand
# [11] = target: CCR1 on monocytes (UniProt P32246); test: 125I MIP-1α competition binding on cells; monocytes; conditions: ligand
# [12] = target: T1, CCR1 expressed on NSO transfectants; test: 125I MIP-1α competition binding on cells; NSO-CCR1 cells
# [13] = target: T2, CCR1 on monocytes; test: 125I MIP-1α competition binding on cells; monocytes
# [14] = target: T3, CCR1 on THP-1 cells (acute monocytic …); test: 125I MIP-1α competition binding on cells; THP-1 cells
# [15] = target: T4, CCR1 expressed on HEK293 transfectants; test: 125I MIP-1α competition binding on cells; HEK293-CCR1 cells
# [16] = target: T5, CCR1; test: Intracellular Ca2+ mobilization via CCR1; assay type: cell-based; parameters: endogenous in cells; host or cells: THP-1, monocytes, neutrophils, immature DC (endogenous); also HEK293-CCR1 and NSO-CCR1 transfectants
# [17] = target: T6, CCR1 expressed on HEK293 transfectants; test: competition against ^125I MIP-1α on HEK293-CCR1 cells
# [18] = target: T5, CCR1; test: CCR1 mediated cell migration; assay type: cell-based
# [19] = target: T7, CCR1 expressed on NSO transfectants; test: competition against ^125I MIP-1α on NSO-CCR1 cells
# [20] = target: T12, CXCR4 on CEM-NKr cells (Homo sapiens, UniProt P61073); test: 125I SDF-1α competition binding on CEM-NKr cells; conditions: cold competitor array
# T12 construct: host or cells: CEM-NKr (whole cells)
# T12 sequence (P61073 whole entry): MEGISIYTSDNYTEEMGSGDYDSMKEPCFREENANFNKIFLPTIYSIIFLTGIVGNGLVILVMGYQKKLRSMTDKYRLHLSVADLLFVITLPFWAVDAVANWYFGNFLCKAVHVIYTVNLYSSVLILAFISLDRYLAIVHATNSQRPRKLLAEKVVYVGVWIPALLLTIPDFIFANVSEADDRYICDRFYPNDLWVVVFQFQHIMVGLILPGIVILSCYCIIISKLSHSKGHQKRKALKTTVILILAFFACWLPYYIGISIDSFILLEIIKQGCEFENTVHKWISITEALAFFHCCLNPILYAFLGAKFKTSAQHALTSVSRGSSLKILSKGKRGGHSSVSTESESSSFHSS
# Excerpt: as §1, with “Following incubation in all binding assays, reactions were aspirated onto PEI-treated GF/B glass filters (Packard) using a cell harvester (Packard) and washed twice (25 mM HEPES, 500 mM NaCl, 1 mM CaCl2, 5 mM MgCl2, adjusted to pH 7.1).” left out
# [21] = target: CXCR4 as expressed on breast tumor cells (MCF-7, MDA MB-231) (human) (UniProt P61073); test: homologous competition against ^125I I-TAC on MCF-7 cells pre-incubated with excess MIG (~175 nM)
# [22] = target: CXCR4 as expressed on breast tumor cells (MCF-7, MDA MB-231) (human) (UniProt P61073); test: homologous competition against ^125I I-TAC on MCF-7 cells, medium alone
molecule,measurement,setting,value
"I-TAC: recombinant human chemokine, reported CXCR3 ligand","DisplaceMax displacement of 125I SDF-1α on MCF-7, affinity class",[1],high affinity
same,competition with / inhibition of 125I SDF-1α binding on MCF-7 (in words),[2],does compete
same,competition with radiolabeled human-SDF-1 for binding to E13 fetal liver cells,[3],able to compete
"SDF-1: CXC chemokine, ligand for CXCR4, isoform not stated",cell invasion,[4],induced cell invasion
same,intracellular calcium mobilization in E17 fetal liver cells,[5],mobilizing intracellular calcium
same,recovery from serum starvation induced apoptosis,[6],able to recover from the starvation
"MIG: monokine induced by gamma interferon, CXCR3 ligand",inhibition of 125I I-TAC binding to MCF-7 by cold chemokine competitor (in words),[7]; MCF-7 cells,not inhibited
same,effect of pre-incubation with excess chemokine on 125I I-TAC binding to MCF-7,"[7]; excess SDF-1β ~90 nM or excess MIG ~175 nM, 30 min at 4° C.",did not effect this binding profile
CKβ8 (25-99) (from UniProt P55773 46-120),IC50,[8],0.02 nM
same,IC50,[9],0.27 nM
same,IC50,[10],1.34 nM
same,IC50,[11],0.25 nM
B1,IC50,[12],0.02 nM
same,IC50,[13],< 0.2 nM
same,IC50,[14],< 0.2 nM
same,IC50,[15],< 0.2 nM
same,"Ca2+ mobilization in HEK293-CCR1, THP-1 and monocytes",[16],able to mobilize Ca2+
same,Ca2+ mobilization in neutrophils,[16],do not mobilize Ca2+
B2,IC50,[17],64 nM
same,IC50,[13],10.3 nM
same,IC50,[14],6.3 nM
same,"induction of cell migration, neutrophils",[18]; CCR1 expressed on neutrophils,does not induce cell migration
same,"induction of CCR1 mediated cell migration, THP-1 cells, monocytes and immature DC","[18]; THP-1 cells, monocytes and immature DC",can induce CCR1 mediated cell migration
same,IC50,[19],3.9 nM
same,"Ca2+ mobilization in HEK293-CCR1, THP-1 and monocytes",[16],able to mobilize Ca2+
same,Ca2+ mobilization in neutrophils,[16],do not mobilize Ca2+
B3,"Ca2+ mobilization in HEK293-CCR1, THP-1 and monocytes",[16],able to mobilize Ca2+
same,Ca2+ mobilization in neutrophils,[16],do not mobilize Ca2+
B4,"DisplaceMax displacement of 125I SDF-1α on CEM-NKr, affinity class",[20],potential moderate affinity
B5,IC50,[12],0.15 nM
same,IC50,[13],0.27 nM
same,IC50,[14],0.17 nM
same,IC50,[15],0.54 nM
B6,"Ca2+ mobilization in HEK293-CCR1, THP-1 and monocytes",[16],able to mobilize Ca2+
same,Ca2+ mobilization in neutrophils,[16],do not mobilize Ca2+
B7,"DisplaceMax displacement of 125I SDF-1α on MCF-7, affinity class",[1],high affinity
B8,IC50,[21],1 nM
same,IC50,[22],1 nM
